B1: CPEB3 Ribozyme (parent)
chain: UAACAGGGGGCCACAGCAGAAGCGUUCACGUCGCAGCCCCUGUCAGAUUCUGGUGAAUCUGCGAAUUCUGCUGUAUAUCUC

Variants of: B1
Assay: self-cleavage, relative activity (ratio to wild type); higher = more cleavage; in vitro, sequencing
How it was run: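 For each CPEB3 ribozyme variant, relative activity is its cleaved/total read fraction divided by the unmutated ribozyme's. Barcoded error-prone PCR libraries were transcribed by T7 RNA polymerase (5 hours, 37°C) and held in DNase I for 15 min before an EDTA stop, with cleavage occurring throughout. Template-switching reverse transcription and Illumina sequencing were used to read the RNAs. A 5-read minimum applied, and results are the mean of three batches.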

| Variant | self-cleavage |
| --- | --- |
| UAACAGGGGGCCACAGCAGAAGCGUUCACGUCGCAGCCUCUGUCAGAUUCUGGUGAAUCUGCGAAUUCUGCUGUAUAACUC [C39U U78A] | 0.89 |
| UAACAGGGGGCCACAGCAGAAGCGUUCACGUCGCAGCCUCUGUCAGAUUCUGGUGAAUCUGCGAAUUCUGCUGUAUAUCCC [C39U U80C] | 0.8 |
| UAACAGGGGGCCACAGCAGAAGCGUUCACGUCGCAGCCCAUGUCAGAUUCUGGUGAAUCUGCGAAUUCUGCUGUAUAUCUC [C40A] | 0.28 |
| UAACAGGGGGCCACAGCAGAAGCGUUCACGUCGCAGCCCAUGUCCGAUUCUGGUGAAUCUGCGAAUUCUGCUGUAUAUCUC [C40A A45C] | 0.23 |
| UAACAGGGGGCCACAGCAGAAGCGUUCACGUCGCAGCCCAUGUCGGAUUCUGGUGAAUCUGCGAAUUCUGCUGUAUAUCUC [C40A A45G] | 0.26 |
| UAACAGGGGGCCACAGCAGAAGCGUUCACGUCGCAGCCCAUGUCUGAUUCUGGUGAAUCUGCGAAUUCUGCUGUAUAUCUC [C40A A45U] | 0.31 |
| UAACAGGGGGCCACAGCAGAAGCGUUCACGUCGCAGCCCAUGUCAGCUUCUGGUGAAUCUGCGAAUUCUGCUGUAUAUCUC [C40A A47C] | 0.17 |
| UAACAGGGGGCCACAGCAGAAGCGUUCACGUCGCAGCCCAUGUCAGGUUCUGGUGAAUCUGCGAAUUCUGCUGUAUAUCUC [C40A A47G] | 0.21 |
| UAACAGGGGGCCACAGCAGAAGCGUUCACGUCGCAGCCCAUGUCAGAUUCUGGUGGAUCUGCGAAUUCUGCUGUAUAUCUC [C40A A56G] | 0.23 |
| UAACAGGGGGCCACAGCAGAAGCGUUCACGUCGCAGCCCAUGUCAGAUUCUGGUGUAUCUGCGAAUUCUGCUGUAUAUCUC [C40A A56U] | 0.2 |
| UAACAGGGGGCCACAGCAGAAGCGUUCACGUCGCAGCCCAUGUCAGAUUCUGGUGAGUCUGCGAAUUCUGCUGUAUAUCUC [C40A A57G] | 0.22 |
| UAACAGGGGGCCACAGCAGAAGCGUUCACGUCGCAGCCCAUGUCAGAUUCUGGUGAAUCUGCGGAUUCUGCUGUAUAUCUC [C40A A64G] | 0.12 |
| UAACAGGGGGCCACAGCAGAAGCGUUCACGUCGCAGCCCAUGUCAGAUUCUGGUGAAUCUGCGAGUUCUGCUGUAUAUCUC [C40A A65G] | 0.31 |
| UAACAGGGGGCCACAGCAGAAGCGUUCACGUCGCAGCCCAUGUCAGAUUCUGGUGAAUCUGCGAAUUCUGCUGUGUAUCUC [C40A A75G] | 0.47 |
| UAACAGGGGGCCACAGCAGAAGCGUUCACGUCGCAGCCCAUGUCAGAUUCUGGUGAAUCUGCGAAUUCUGCUGUUUAUCUC [C40A A75U] | 0.43 |
| UAACAGGGGGCCACAGCAGAAGCGUUCACGUCGCAGCCCAUGUCAGAUUCUGGUGAAUCUGCGAAUUCUGCUGUAUGUCUC [C40A A77G] | 0.28 |
| UAACAGGGGGCCACAGCAGAAGCGUUCACGUCGCAGCCCAUGUCAGAUUAUGGUGAAUCUGCGAAUUCUGCUGUAUAUCUC [C40A C50A] | 0.27 |

| Variant | self-cleavage |
| --- | --- |
| UAACAGGGGGCCACAGCAGAAGCGUUCACGUCGCAGCCCAUGUCAGAUUUUGGUGAAUCUGCGAAUUCUGCUGUAUAUCUC [C40A C50U] | 0.22 |
| UAACAGGGGGCCACAGCAGAAGCGUUCACGUCGCAGCCCAUGUCAGAUUCUGGUGAAUCUGCGAAUUCUGCUGUAUAUCUG [C40A C81G] | 0.07 |
| UAACAGGGGGCCACAGCAGAAGCGUUCACGUCGCAGCCCAUUUCAGAUUCUGGUGAAUCUGCGAAUUCUGCUGUAUAUCUC [C40A G42U] | 0.31 |
| UAACAGGGGGCCACAGCAGAAGCGUUCACGUCGCAGCCCAUGUCAGAUUCUGGUGAAUCUGCAAAUUCUGCUGUAUAUCUC [C40A G63A] | 0.12 |
| UAACAGGGGGCCACAGCAGAAGCGUUCACGUCGCAGCCCAAGUCAGAUUCUGGUGAAUCUGCGAAUUCUGCUGUAUAUCUC [C40A U41A] | 0.1 |
| UAACAGGGGGCCACAGCAGAAGCGUUCACGUCGCAGCCCACGUCAGAUUCUGGUGAAUCUGCGAAUUCUGCUGUAUAUCUC [C40A U41C] | 0.36 |
| UAACAGGGGGCCACAGCAGAAGCGUUCACGUCGCAGCCCAUGACAGAUUCUGGUGAAUCUGCGAAUUCUGCUGUAUAUCUC [C40A U43A] | 0.45 |
| UAACAGGGGGCCACAGCAGAAGCGUUCACGUCGCAGCCCAUGCCAGAUUCUGGUGAAUCUGCGAAUUCUGCUGUAUAUCUC [C40A U43C] | 0.14 |
| UAACAGGGGGCCACAGCAGAAGCGUUCACGUCGCAGCCCAUGUCAGAAUCUGGUGAAUCUGCGAAUUCUGCUGUAUAUCUC [C40A U48A] | 0.15 |
| UAACAGGGGGCCACAGCAGAAGCGUUCACGUCGCAGCCCAUGUCAGACUCUGGUGAAUCUGCGAAUUCUGCUGUAUAUCUC [C40A U48C] | 0.18 |
| UAACAGGGGGCCACAGCAGAAGCGUUCACGUCGCAGCCCAUGUCAGAUACUGGUGAAUCUGCGAAUUCUGCUGUAUAUCUC [C40A U49A] | 0.18 |
| UAACAGGGGGCCACAGCAGAAGCGUUCACGUCGCAGCCCAUGUCAGAUUCAGGUGAAUCUGCGAAUUCUGCUGUAUAUCUC [C40A U51A] | 0.33 |
| UAACAGGGGGCCACAGCAGAAGCGUUCACGUCGCAGCCCAUGUCAGAUUCGGGUGAAUCUGCGAAUUCUGCUGUAUAUCUC [C40A U51G] | 0.25 |
| UAACAGGGGGCCACAGCAGAAGCGUUCACGUCGCAGCCCAUGUCAGAUUCUGGAGAAUCUGCGAAUUCUGCUGUAUAUCUC [C40A U54A] | 0.29 |
| UAACAGGGGGCCACAGCAGAAGCGUUCACGUCGCAGCCCAUGUCAGAUUCUGGCGAAUCUGCGAAUUCUGCUGUAUAUCUC [C40A U54C] | 0.28 |
| UAACAGGGGGCCACAGCAGAAGCGUUCACGUCGCAGCCCAUGUCAGAUUCUGGUGAACCUGCGAAUUCUGCUGUAUAUCUC [C40A U58C] | 0.1 |
| UAACAGGGGGCCACAGCAGAAGCGUUCACGUCGCAGCCCAUGUCAGAUUCUGGUGAAUCCGCGAAUUCUGCUGUAUAUCUC [C40A U60C] | 0.2 |
